Results from patent publication US20230189773A1, “ENGINEERED CELLS, ANIMAL MODELS, AND USES THEREOF FOR MODELING LOW GRADE GLIOMA (LGG)” (Washington University, priority 2021, published 2023).
Entries after “also recorded” stand apart in the source; their conditions may differ.

Key:
NF1-null iNPC-LGGs = experiment: PD0325901 treatment of Rag1-/- mice harboring NF1-null iNPC-LGGs; assay type: in vivo, mouse; conditions: 5 mg/kg/day intraperitoneal, 6 days a week, four weeks, from 1 mpi
Protocol: (§1) Twenty 4-week-old Rag1^−/− mice of both sexes harboring NF1-null iNPC-LGGs 1 month post-injection were intraperitoneally injected either with 10% DMSO in saline or with 5 mg/kg/day PD0325901 (Sigma-Aldrich), 6 days a week, for a total of four weeks. Treated mice were collected for histopathologic analysis. For in vitro experiments, iNPCs, iGRPs and iOPCs were treated with 10 nM PD0325901 for 24 h prior to immunocytochemical analysis.
Injected mice were transcardially perfused at 1, 3 or 6 months post-injection, initially with Ringer's solution, and then followed by ice-cold 4% paraformaldehyde. Whole mouse brains were harvested, post-fixed in 4% PFA and dehydrated in 70% ethanol. Dehydrated samples were then paraffin-embedded and serially sectioned (5 μm). Hematoxylin and eosin (H&E), as well as antibody immunohistochemical staining, were performed using the primary antibodies, Vectastain ABC kit (Vector Laboratories) and appropriate biotinylated secondary antibodies provided in TABLE 1.
Immunostaining was performed using the primary antibodies listed in TABLE 1 with appropriate Alexa Fluor-conjugated secondary antibodies. Bis-benzamide (Hoechst) was used as a nuclear counterstain.

[1] = system: NF1-null iNPCs, iGRPs and iOPCs; experiment: In vitro PD0325901 treatment of iNPCs, iGRPs and iOPCs (Ki67, cleaved caspase-3 immunocytochemistry); assay type: cell-based, human; conditions: 10 nM, 24 h
Protocol: as §1
(§2) Immunocytochemistry was performed on hiPSCs, iNPCs, iGRPs, iOPCs and astrocytes using the primary antibodies described in Additional file 1: Table 51. […] Appropriate secondary Alexa-Fluor-conjugated secondary antibodies diluted to 1:200 were employed and bis-benzamide (Hoechst) was used as a nuclear counterstain. Cells were mounted with Immu-mount (Fisher) and imaged on a Leica DMi1 fluorescent microscope using the Leica LAS X software, as per manufacturer's instructions.

NF1-null iNPCs [2] = experiment: Direct cell count of NF1-null iNPCs after recombinant Cxcl10; assay type: cell-based, human; conditions: for decrease in cell number (direct cell count): NF1-null iNPCs
Protocol: RAS activity (ThermoFisher), cAMP (Fisher) detection, BrdU proliferation assays (Roche) and direct cell counting were performed according to the manufacturer's instructions. Cxcl10 (Ray Biotech) ELISA assays were performed according to the manufacturer's instructions. Each assay was performed using a minimum of three independently generated biological replicates.
(§3) Cxcl10 cDNA (Sino Biological) and lentiviral packaging vectors, or KIAA1549:BRAF adenoviral DNA, were transfected in HEK293T cells using Fugene HD (Promega) following the manufacturer's instructions. Viral supernatants were collected 48 h post-transfection, filtered, and used to directly infect iNPCs and iGRPs for 24 h. Cxcl10-GFP expression was confirmed by Western blotting as previously described. KIAA1549:BRAF-infected cells were puromycin-selected for 2 weeks prior to further expansion. Infected cells were used for intracranial injections in Rag1^−/− neonatal mice. For cell proliferation, cell death and differentiation analyses, iNPCs were treated with 25 or 100 pg/mL of murine recombinant Cxcl10 (PeproTech) for 24 h. Each experiment was performed a minimum of three times on independently generated samples.

NF1-null iNPCs [3] = experiment: Cleaved caspase-3+ cells (programmed cell death) in NF1-null iNPCs after recombinant Cxcl10; assay type: cell-based, human; conditions: for increase in programmed cell death (cleaved caspase-3+ cells): NF1-null iNPCs
Protocol: as §2, §3

NF1-null iNPCs [4] = experiment: GFAP+ astrocytic differentiation of NF1-null iNPCs after recombinant Cxcl10; assay type: cell-based, human; conditions: for increase in GFAP+ astrocytic differentiation: NF1-null iNPCs
Protocol: as §2, §3

[5] = relative to vehicle-treated LGGs
[6] = 25 pg/mL recombinant Cxcl10, 24 h
[7] = 100 pg/mL recombinant Cxcl10, 24 h
[8] = range over ectopic Cxcl10 expression or 25 or 100 pg/mL recombinant Cxcl10 (FIG. 19A)
[9] = range over ectopic Cxcl10 expression and recombinant Cxcl10 treatments (FIG. 19B)

`O=C(NOC[C@H](O)CO)c1ccc(F)c(F)c1Nc1ccc(I)cc1F` [PD0325901] was tested, and the “presence of Ku80+ iNPC-LGGs after treatment” value (NF1-null iNPC-LGGs) was “still detectable”, the “tumor cell apoptosis (TUNEL+ cells)” value (NF1-null iNPC-LGGs; [5]) was “increased hiPSC-LGG cell apoptosis; also recorded: increased tumor cell apoptosis” and the “tumor cell proliferation (Ki67+ cells)” value (NF1-null iNPC-LGGs; [5]) was “reduced tumor cell proliferation; also recorded: decreased”. The “apoptosis (cleaved caspase-3)” value [1] was “increased hiPSC-LGG cell apoptosis; also recorded: increases apoptosis” and the “cell proliferation (Ki67)” value [1] was “reduced proliferation; also recorded: decreased cell proliferation; also recorded: decreases proliferation”.

B1: recombinant murine Cxcl10 protein: murine recombinant Cxcl10 (PeproTech), a cytokine belonging to the CXC chemokine family (protein, UniProt P17515 22-98, looked up)
C-X-C motif chemokine 10: IPLARTVRCNCIHIDDGPVRMRAIGKLEIIPASLSCPRVEIIATMKKNDEQRCLNPESKTIKNLMKAFSQKRSKRAP
With B1 the “decrease in cell number (direct cell count)” value (NF1-null iNPCs [2]; [6]) was 9%, the “decrease in cell number (direct cell count)” value (NF1-null iNPCs [2]; [7]) was 13% and the “NF1-null iNPC cell numbers decrease (direct cell count)” value (NF1-null iNPCs [2]; [8]) was 9-20%. For the same molecule, the “increase in programmed cell death (cleaved caspase-3+ cells)” value (NF1-null iNPCs [3]; [6]) was 4.6 fold, the “increase in programmed cell death (cleaved caspase-3+ cells)” value (NF1-null iNPCs [3]; [7]) was 20.5 fold and the “percent of cleaved caspase-3+ cells increases” value (NF1-null iNPCs [3]; [8]) was 8.3-20.5 fold. The “increase in GFAP+ astrocytic differentiation” value (NF1-null iNPCs [4]; [6]) was 8.2 fold, the “increase in GFAP+ astrocytic differentiation” value (NF1-null iNPCs [4]; [7]) was 20.5 fold and the “differentiated GFAP+ cells undergoing apoptosis (cleaved caspase-3+)” value (NF1-null iNPCs [4]; [9]) was 95-100%. The “share of total cells undergoing apoptosis (cleaved caspase-3+) that are GFAP+” value (NF1-null iNPCs [4]; [9]) was 83.3-88.8%.
